Experimental data reported in publication PMC11865592 (Nature Communications, 2025).

What was measured:
Conditions in all cases: both partners purified
[1] = target: T1, non-glycosylated rat HEV pORF2 P domain (Rat hepatitis E virus, R68/DEU/2009 in …, strain); experiment: SPR
T1 construct: also called rat HEV P domain; source: Drosophila S2 cells, purified from cell lysates (Strep-Tactin XT, SEC); not shown: double strep tag, N-terminal, kept

[2] = target: T2, non-glycosylated HEV GT 2 pORF2 P domain (Hepatitis E virus genotype 2, isolate …, UniProt Q03500, strain); experiment: SPR
T2 construct: also called HEV GT 2 P domain; source: Drosophila S2 cells, purified from cell lysates (Strep-Tactin XT, SEC); not shown: double strep tag, N-terminal, kept

[3] = target: T3, non-glycosylated HEV GT 1 pORF2 P domain (Hepatitis E virus genotype 1, isolate …, UniProt P33426, strain); experiment: SPR
T3 construct: also called HEV GT 1 P domain; source: Drosophila S2 cells, purified from cell lysates (Strep-Tactin XT, SEC); not shown: double strep tag, N-terminal, kept

[4] = target: T4, non-glycosylated HEV GT 4 pORF2 P domain (Hepatitis E virus genotype 4, isolate …, UniProt Q9IVZ8, strain); experiment: SPR
T4 construct: also called HEV GT 4 P domain; source: Drosophila S2 cells, purified from cell lysates (Strep-Tactin XT, SEC); not shown: double strep tag, N-terminal, kept

[5] = target: T5, non-glycosylated rat HEV pORF2 P domain (Rat hepatitis E virus, R68/DEU/2009 in …); experiment: SPR
T5 construct: not shown: double strep tag, N-terminal, kept

[6] = target: T6, non-glycosylated HEV GT 3 pORF2 P domain dimer (amino acids 456-660), expressed in the cytosol (Hepatitis E virus genotype 3, isolate …, strain); experiment: ELISA; plates coated with 100 ng P domain per well in PBS overnight at 4 °C; antibody (IgG) at 2 μg/ml, 1 h at room temperature; HRP-conjugated goat anti-human antibody
T6 construct: not shown: double strep tag, N-terminal, kept

[7] = target: T7, non-glycosylated HEV GT 4 pORF2 P domain (Hepatitis E virus genotype 4, isolate …, UniProt Q9IVZ8, strain); experiment: as above
T7 construct: also called GT 4 P domain; not shown: double strep tag, N-terminal, kept

[8] = target: T5, non-glycosylated rat HEV pORF2 P domain; experiment: as above
[9] = target: T8, non-glycosylated HEV GT 2 pORF2 P domain (Hepatitis E virus genotype 2, isolate …, UniProt Q03500, strain); experiment: as above
T8 construct: also called GT 2 P domain; not shown: double strep tag, N-terminal, kept

[10] = target: T9, non-glycosylated HEV GT 3 pORF2 P domain (Hepatitis E virus genotype 3, …); experiment: SPR
T9 construct: also called non-glycosylated GT 3 P domain; HEV GT3 P domain; not shown: double strep tag, N-terminal, kept

[11] = target: T10, glycosylated HEV GT 3 pORF2 P domain dimer (amino acids 456-660), secreted, carrying a glycan at N562 (Hepatitis E virus genotype 3, isolate …, strain); experiment: SPR
T10 construct: not shown: double strep tag, N-terminal, kept

[12] = target: T6, non-glycosylated HEV GT 3 pORF2 P …; experiment: SPR
[13] = target: T10, glycosylated HEV GT 3 pORF2 P domain …; experiment: ELISA; plates coated with 100 ng P domain per well in PBS overnight at 4 °C; antibody (IgG) at 2 μg/ml, 1 h at room temperature; HRP-conjugated goat anti-human antibody

B1: scFv p60.12 (scFv, V domains shown)
VH: QVQLVQSGAEVKKPGSSVKVSCKASGDTFSSYVISWVRQAPGQGLEWMGGIIPIIGTANYAPKFQDTVTITADKSTNTVYMEMRSLRSEDTAVYYCASNVQLQRRGNWFDPWGQGTLVTVSS
VL: QSALTQPASVSGSPGQSITISCTGTSSDIGDYNFVSWYQQHPGKAPKLMIFDVTNRPSGVSNRFSGSKSGNTASLTISGLQVEDEADYYCSSYTSTNTPVVFGGGTKLTVL
notes: also called bnAb p60.12; nAb p60.12
**Q.** For B1, which Kd [1] is on record?
**A.** Its Kd is 5590 nM.

**Q.** What about the koff [1] of the same binder?
**A.** The koff was 0.246 s⁻¹.

**Q.** What about the Kd [2] of the same binder?
**A.** Its Kd is 0.509 nM.

**Q.** What about the koff [2] of the same binder?
**A.** The koff was 2.96e-05 s⁻¹.

**Q.** And the Kd [3]?
**A.** Its Kd is 3.29 nM.

**Q.** What about the koff [3] of the same binder?
**A.** The koff was 0.000325 s⁻¹.

**Q.** What about the Kd [4] of the same binder?
**A.** Its Kd is 8.75 nM.

**Q.** What about the koff [4] of the same binder?
**A.** Its koff is 0.000609 s⁻¹.

B2: p60.12 scFv (SPR analyte) (scFv, V domains shown)
VH: B1 VH
VL: B1 VL
**Q.** With B2 as the binder, how does the “fold lower affinity than to the other four P domains” value [5] read?
**A.** Its value is ~1000 fold.

B3: murine bnAb 8G12 (antibody, V domains shown)
VH: QLQQSGPELVKPGASVKISCKASGYTFTDFNMHWVKQSHGKSLEWIGYIYPYNGITGQNQKFKSKATLTVDNSSSSAYMELRSLTSEDSAVYYCARERFGVGNNYAWFTYWGQGTLVTVSS
VL: DIQMTQSPASLSVSVGETVTITCRASENIYSNLVWYQQKQGKSPQVLVYAATNLPDGVPSRFSGSGSGTQYSLKINSLQSEDSGSYYCQHFWETPFTFGSGTKLEIK
notes: also called control bnAb 8G12
**Q.** Does B3 bind [6]?
**A.** Result: binds

**Q.** Does B3 bind [7]?
**A.** Result: binds

**Q.** Does B3 bind [8]?
**A.** Result: no binding

**Q.** Does B3 bind [9]?
**A.** Result: binds

B4: scFv p61.15 (scFv, V domains shown)
VH: QVQLVQSGAEVKKPGASVKVSCKASGYTFTNYFMHWVRQAPGQGLEWMGVFNPRGGSTTYAQKFQGRITMTSDPSTSTVYMELTSLTSEDTAMYYCARMGSVTGPVGHRWLDPWGQGTLVTVSS
VL: EIVLTQSPATLSLSPGERAALSCRASQSVDTYLAWYQQKPGQAPRLLIYDASTRAPGIPARFSGSGSGTDFTLTISSLEPEDFAVYYCQQRYNWPPITFGQGTRLEIK
notes: also called bnAb p61.15; nAb p61.15
**Q.** With B4 as the binder, how does the Kd [10] read?
**A.** The Kd was 0.0816 nM.

**Q.** And the koff [10]?
**A.** Its koff is 2.56e-05 s⁻¹.

**Q.** And the Kd [2]?
**A.** Its Kd is 0.896 nM.

**Q.** What about the koff [2] of the same binder?
**A.** The koff was 0.000585 s⁻¹.

**Q.** What about the Kd [3] of the same binder?
**A.** Its Kd is 1.51 nM.

**Q.** And the koff [3]?
**A.** The koff was 0.000604 s⁻¹.

**Q.** What about the Kd [4] of the same binder?
**A.** Its Kd is 0.154 nM.

**Q.** And the koff [4]?
**A.** Its koff is 0.000142 s⁻¹.

B5: p61.15 scFv (SPR analyte) (scFv, V domains shown)
VH: B4 VH
VL: B4 VL
notes: also called scFv-p61.15
**Q.** Does B5 bind [11]?
**A.** Result: binds

**Q.** Does B5 bind [12]?
**A.** Result: binds

B6: p61.15 IgG1 (antibody, V domains shown)
VH: B4 VH
VL: B4 VL
notes: also called nAb p61.15; bnAb p61.15
**Q.** Which results are given for B6?
**A.** binding result [13]: binds; binding result [6]: binds; binding result [8]: no binding (tested: 2 μg/ml)

B7: scFv p60.15 (scFv, V domains shown)
VH: EVQLVQSGAELKKPGESLRISCKGSGYDFANYWIGWVRQMPGKGLEWMGIIYPRDSDIRYSPSFQGQVTISADKSISTAYLQLSSLKASDTAMYYCARHLRGLRLGELFPFDYWGQGTLVTVSS
VL: AIQLTQSPSSLSASVGDSVTITCRASQDIFSYLAWYQQKPGKAPKLLIYAASTLQSGVPSRFSGSGSGTDFTLTISSLQPEDFATYYCQQLNRYPFAFGPGTKVDIK
notes: also called bnAb p60.15; nAb p60.15
**Q.** Which Kd [10] does the source give for B7 here?
**A.** The Kd was 0.166 nM.

**Q.** And the koff [10]?
**A.** The koff was 5.18e-05 s⁻¹.

B8: p60.15 IgG1 (antibody, V domains shown)
VH: B7 VH
VL: B7 VL
notes: also called nAb p60.15; bnAb p60.15
**Q.** Does B8 bind [8]?
**A.** Result: no binding (tested: 2 μg/ml)

B9: scFv p60.1 (scFv, V domains shown)
VH: EVQLQQSGPGLVKPSQTLSLICAISGDSVSTINAAWNWIRQSPSRGLEWLGRTYYRSKWYHEYATSVQGRIIITPDTSKNQFSLQLNSVTPEDSAVYFCARDRGPTPFDFWGQGTLVTVSS
VL: DIQMTQSPSSLSASVGDSVTITCRANQSISRSLNWYQQQPGKAPNLLIYAASHLHSGVSSRFSGSGSGADFALTISSLQPEDFATYHCQQSFVTPFTFGPGTKVDLK
notes: also called bnAb p60.1; nAb p60.1
**Q.** What does the source list for B9?
**A.** Kd [1]: 4930 nM; koff [1]: 0.456 s⁻¹; Kd [2]: 0.128 nM; koff [2]: 8.16e-05 s⁻¹; Kd [3]: 0.0238 nM; koff [3]: 2.56e-05 s⁻¹; Kd [4]: 0.0382 nM; koff [4]: 5.14e-05 s⁻¹

B10: p60.1 scFv (SPR analyte) (scFv, V domains shown)
VH: B9 VH
VL: B9 VL
notes: also called scFv-p60.1
**Q.** B10 was tested. Which “fold lower affinity than to the other four P domains” value [5] did it give?
**A.** The value was ~1000 fold.
